Data on 15 molecules can be found in patent US20250057951A1, “DISCERNIBLE CELL SURFACE PROTEIN VARIANTS OF CD117 FOR USE IN CELL THERAPY” (UNIVERSITÄT BASEL, priority 2021, published 2025).

Experiment [1] has as its system antibody Refmab #1. As to the kind of experiment: Octet screen: binding of CD117 D1-2-3 variants to captured Refmab #1. As to conditions: nm shift at end of association, top analyte concentration (500 nM). The procedure:
A more sophisticated analysis of binding to the elected variants was performed with antibody Refmab #1. Binding of Refmab #1 to wt and variants (analyte) was measured in an Octet system RED96e or R8 at 25° C. with shaking at 1,000 rpm using 1× kinetic buffer (Sartorius, PN: 18-1105). First, the elected variants were screened for their ability to bind Refmab #1 using three different concentrations of analytes. Antibody Refmab #1 was captured by Anti-Human Fc capture biosensor (AHC) (Sartorius, PN: 18-5060) for 300 s at 0.5 to 1 μg/mL. As an analyte, human CD117 wt and variants, containing only domains 1, 2 and 3 (CD117 D1-2-3), was titrated at 500 nM, 50 nM and 5 nM. Association and dissociation of the analyte to Refmab #1 was monitored for 300 s and 900 s, respectively. Reference subtraction was performed against buffer only wells. AHC tips were regenerated using 10 mM Gly-HCl pH 1.7. Data were analyzed using the Octet Data Analysis software HT 12.0. Data were fitted (when possible) to a 1:1 binding model. Kinetic rates ka and […] globally fitted. Binding level of the elected variants were compared to wild type and are shown as percent in FIG. 7. For this qualitative analysis, the binding level of the top analyte concentration at end of the association step was used.

The target of experiment [2] is T1, Biotinylated Avitag-hSCF (human, UniProt P21583 26-190, limits assumed, biotinylated Avitag).
T1 construct: Bought reagent; also called hSCF (Acros Biosystems SCF-H82E1)
T1 sequence (P21583 26-190 limits assumed): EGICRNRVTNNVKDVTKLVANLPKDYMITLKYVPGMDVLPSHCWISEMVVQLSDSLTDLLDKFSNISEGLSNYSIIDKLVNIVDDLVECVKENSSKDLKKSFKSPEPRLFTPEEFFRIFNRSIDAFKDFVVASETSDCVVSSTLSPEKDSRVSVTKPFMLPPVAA
As to the kind of experiment: BLI (Octet), steady state: biotinylated SCF on streptavidin biosensor, CD117 D1-2-3 variant as analyte; KD relative to WT.
Procedure: Domains 4 and 5 were used as a negative, non-binding control.
Association was monitored for 300 s and dissociation for 600 s. […] Reference subtraction was performed against buffer only wells. Biosensors were not regenerated and a new set of SA biosensors was used for each analyte. Data were analyzed using the Octet Data Analysis software HT 12.0. Steady state data analysis was performed due to the fast on/off nature of the interaction.

Chain of antibody Refmab #1 (as listed by the source): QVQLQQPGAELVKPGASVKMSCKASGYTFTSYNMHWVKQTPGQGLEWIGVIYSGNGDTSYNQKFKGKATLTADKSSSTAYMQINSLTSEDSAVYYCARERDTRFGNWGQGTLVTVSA
Chain of antibody Refmab #1 (as listed by the source): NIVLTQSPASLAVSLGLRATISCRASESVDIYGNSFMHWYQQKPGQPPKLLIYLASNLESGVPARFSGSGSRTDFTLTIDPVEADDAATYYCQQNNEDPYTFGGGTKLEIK

With “S1231: variant of human CD117, printed S1231, probably substitution S123I”, the “binding to Refmab #1 compared to wild type” value in experiment [1] is recorded as “strong decrease in binding”.

B1: K193G (receptor)
extracellular domains 1, 2 and 3: QPSVSPGEPSPPSIHPGKSDLIVRVGDEIRLLCTDPGFVKWTFEILDETNENKQNEWITEKAEATNTGKYTCTNKHGLSNSIYVFVRDPAKLFLVDRSLYGKEDNDTLVRCPLTDPEVTNYSLKGCQGKPLPKDLRFIPDPKAGIMIKSVKRAYHRLCLHCSVDQEGGSVLSEKFILKVRPAFKAVPVVSVSKASYLLREGEEFTVTCTIKDVSSSVYSTWKRENSQTKLQEKYNSWHHGDFNYERQATLTISSARVNDSGVFMCYANNTFGSANVTTTLEVVD
notes: not in the list MOLECULES; also called human CD117 D1-2-3 variant K193G
In the case of B1, the binding result in experiment [2] was “binds”.

B2: K193T (receptor)
extracellular domains 1, 2 and 3: QPSVSPGEPSPPSIHPGKSDLIVRVGDEIRLLCTDPGFVKWTFEILDETNENKQNEWITEKAEATNTGKYTCTNKHGLSNSIYVFVRDPAKLFLVDRSLYGKEDNDTLVRCPLTDPEVTNYSLKGCQGKPLPKDLRFIPDPKAGIMIKSVKRAYHRLCLHCSVDQEGTSVLSEKFILKVRPAFKAVPVVSVSKASYLLREGEEFTVTCTIKDVSSSVYSTWKRENSQTKLQEKYNSWHHGDFNYERQATLTISSARVNDSGVFMCYANNTFGSANVTTTLEVVD
notes: not in the list MOLECULES; also called human CD117 D1-2-3 variant K193T
On to B2, for which, in experiment [2], the binding result is “binds”.

B3: K193E (receptor)
extracellular domains 1, 2 and 3: QPSVSPGEPSPPSIHPGKSDLIVRVGDEIRLLCTDPGFVKWTFEILDETNENKQNEWITEKAEATNTGKYTCTNKHGLSNSIYVFVRDPAKLFLVDRSLYGKEDNDTLVRCPLTDPEVTNYSLKGCQGKPLPKDLRFIPDPKAGIMIKSVKRAYHRLCLHCSVDQEGESVLSEKFILKVRPAFKAVPVVSVSKASYLLREGEEFTVTCTIKDVSSSVYSTWKRENSQTKLQEKYNSWHHGDFNYERQATLTISSARVNDSGVFMCYANNTFGSANVTTTLEVVD
notes: not in the list MOLECULES; also called human CD117 D1-2-3 variant K193E
As for B3, the binding result in experiment [2] is “binds”.

B4: V120I (receptor)
extracellular domains 1, 2 and 3: QPSVSPGEPSPPSIHPGKSDLIVRVGDEIRLLCTDPGFVKWTFEILDETNENKQNEWITEKAEATNTGKYTCTNKHGLSNSIYVFVRDPAKLFLIDRSLYGKEDNDTLVRCPLTDPEVTNYSLKGCQGKPLPKDLRFIPDPKAGIMIKSVKRAYHRLCLHCSVDQEGKSVLSEKFILKVRPAFKAVPVVSVSKASYLLREGEEFTVTCTIKDVSSSVYSTWKRENSQTKLQEKYNSWHHGDFNYERQATLTISSARVNDSGVFMCYANNTFGSANVTTTLEVVD
notes: not in the list MOLECULES; also called human CD117 D1-2-3 variant V120I
Consider B4, for which the binding result in experiment [2] was “binds”.

B5: K193D (receptor)
extracellular domains 1, 2 and 3: QPSVSPGEPSPPSIHPGKSDLIVRVGDEIRLLCTDPGFVKWTFEILDETNENKQNEWITEKAEATNTGKYTCTNKHGLSNSIYVFVRDPAKLFLVDRSLYGKEDNDTLVRCPLTDPEVTNYSLKGCQGKPLPKDLRFIPDPKAGIMIKSVKRAYHRLCLHCSVDQEGDSVLSEKFILKVRPAFKAVPVVSVSKASYLLREGEEFTVTCTIKDVSSSVYSTWKRENSQTKLQEKYNSWHHGDFNYERQATLTISSARVNDSGVFMCYANNTFGSANVTTTLEVVD
notes: not in the list MOLECULES; also called human CD117 D1-2-3 variant K193D
Consider B5, for which the binding result in experiment [2] is on record as “binds”.

B6: E73G (receptor)
extracellular domains 1, 2 and 3: QPSVSPGEPSPPSIHPGKSDLIVRVGDEIRLLCTDPGFVKWTFEILDGTNENKQNEWITEKAEATNTGKYTCTNKHGLSNSIYVFVRDPAKLFLVDRSLYGKEDNDTLVRCPLTDPEVTNYSLKGCQGKPLPKDLRFIPDPKAGIMIKSVKRAYHRLCLHCSVDQEGKSVLSEKFILKVRPAFKAVPVVSVSKASYLLREGEEFTVTCTIKDVSSSVYSTWKRENSQTKLQEKYNSWHHGDFNYERQATLTISSARVNDSGVFMCYANNTFGSANVTTTLEVVD
notes: not in the list MOLECULES; also called human CD117 D1-2-3 variant E73G
Regarding B6, the binding result in experiment [2] is reported as “binds”.

B7: D121S (receptor)
extracellular domains 1, 2 and 3: QPSVSPGEPSPPSIHPGKSDLIVRVGDEIRLLCTDPGFVKWTFEILDETNENKQNEWITEKAEATNTGKYTCTNKHGLSNSIYVFVRDPAKLFLVSRSLYGKEDNDTLVRCPLTDPEVTNYSLKGCQGKPLPKDLRFIPDPKAGIMIKSVKRAYHRLCLHCSVDQEGKSVLSEKFILKVRPAFKAVPVVSVSKASYLLREGEEFTVTCTIKDVSSSVYSTWKRENSQTKLQEKYNSWHHGDFNYERQATLTISSARVNDSGVFMCYANNTFGSANVTTTLEVVD
notes: not in the list MOLECULES; also called human CD117 D1-2-3 variant D121S
For B7, in experiment [2], the binding result is listed as “binds”.

B8: K193M (receptor)
extracellular domains 1, 2 and 3: QPSVSPGEPSPPSIHPGKSDLIVRVGDEIRLLCTDPGFVKWTFEILDETNENKQNEWITEKAEATNTGKYTCTNKHGLSNSIYVFVRDPAKLFLVDRSLYGKEDNDTLVRCPLTDPEVTNYSLKGCQGKPLPKDLRFIPDPKAGIMIKSVKRAYHRLCLHCSVDQEGMSVLSEKFILKVRPAFKAVPVVSVSKASYLLREGEEFTVTCTIKDVSSSVYSTWKRENSQTKLQEKYNSWHHGDFNYERQATLTISSARVNDSGVFMCYANNTFGSANVTTTLEVVD
notes: not in the list MOLECULES; also called human CD117 D1-2-3 variant K193M
B8: the binding result in experiment [2] is reported as “binds”.

B9: S123P: variant of human CD117 with substitution S123P (protein)
chain: QPSVSPGEPSPPSIHPGKSDLIVRVGDEIRLLCTDPGFVKWTFEILDETNENKQNEWITEKAEATNTGKYTCTNKHGLSNSIYVFVRDPAKLFLVDRPLYGKEDNDTLVRCPLTDPEVTNYSLKGCQGKPLPKDLRFIPDPKAGIMIKSVKRAYHRLCLHCSVDQEGKSVLSEKFILKVRPAFKAVPVVSVSKASYLLREGEEFTVTCTIKDVSSSVYSTWKRENSQTKLQEKYNSWHHGDFNYERQATLTISSARVNDSGVFMCYANNTFGSANVTTTLEVVDKG
For the molecule B9, the “binding to Refmab #1 compared to wild type” value in experiment [1] is “particular strong decrease in binding”.

B10: D121T: variant of human CD117 with substitution D121T (protein)
chain: QPSVSPGEPSPPSIHPGKSDLIVRVGDEIRLLCTDPGFVKWTFEILDETNENKQNEWITEKAEATNTGKYTCTNKHGLSNSIYVFVRDPAKLFLVTRSLYGKEDNDTLVRCPLTDPEVTNYSLKGCQGKPLPKDLRFIPDPKAGIMIKSVKRAYHRLCLHCSVDQEGKSVLSEKFILKVRPAFKAVPVVSVSKASYLLREGEEFTVTCTIKDVSSSVYSTWKRENSQTKLQEKYNSWHHGDFNYERQATLTISSARVNDSGVFMCYANNTFGSANVTTTLEVVDKG
Turning to B10, the “binding to Refmab #1 compared to wild type” value in experiment [1] is “particular strong decrease in binding”.

B11: D121R: variant of human CD117 with substitution D121R (protein)
chain: QPSVSPGEPSPPSIHPGKSDLIVRVGDEIRLLCTDPGFVKWTFEILDETNENKQNEWITEKAEATNTGKYTCTNKHGLSNSIYVFVRDPAKLFLVRRSLYGKEDNDTLVRCPLTDPEVTNYSLKGCQGKPLPKDLRFIPDPKAGIMIKSVKRAYHRLCLHCSVDQEGKSVLSEKFILKVRPAFKAVPVVSVSKASYLLREGEEFTVTCTIKDVSSSVYSTWKRENSQTKLQEKYNSWHHGDFNYERQATLTISSARVNDSGVFMCYANNTFGSANVTTTLEVVDKG
Take B11: in experiment [1], the “binding to Refmab #1 compared to wild type” value is listed as “strong decrease in binding”.

B12: S123M: variant of human CD117 with substitution S123M (protein)
chain: QPSVSPGEPSPPSIHPGKSDLIVRVGDEIRLLCTDPGFVKWTFEILDETNENKQNEWITEKAEATNTGKYTCTNKHGLSNSIYVFVRDPAKLFLVDRMLYGKEDNDTLVRCPLTDPEVTNYSLKGCQGKPLPKDLRFIPDPKAGIMIKSVKRAYHRLCLHCSVDQEGKSVLSEKFILKVRPAFKAVPVVSVSKASYLLREGEEFTVTCTIKDVSSSVYSTWKRENSQTKLQEKYNSWHHGDFNYERQATLTISSARVNDSGVFMCYANNTFGSANVTTTLEVVDKG
With B12, the “binding to Refmab #1 compared to wild type” value in experiment [1] was “strong decrease in binding”.

B13: S123Q: variant of human CD117 with substitution S123Q (protein)
chain: QPSVSPGEPSPPSIHPGKSDLIVRVGDEIRLLCTDPGFVKWTFEILDETNENKQNEWITEKAEATNTGKYTCTNKHGLSNSIYVFVRDPAKLFLVDRQLYGKEDNDTLVRCPLTDPEVTNYSLKGCQGKPLPKDLRFIPDPKAGIMIKSVKRAYHRLCLHCSVDQEGKSVLSEKFILKVRPAFKAVPVVSVSKASYLLREGEEFTVTCTIKDVSSSVYSTWKRENSQTKLQEKYNSWHHGDFNYERQATLTISSARVNDSGVFMCYANNTFGSANVTTTLEVVDKG
In the case of B13, the “binding to Refmab #1 compared to wild type” value in experiment [1] is “strong decrease in binding”.

B14: D121Y: variant of human CD117 with substitution D121Y (protein)
chain: QPSVSPGEPSPPSIHPGKSDLIVRVGDEIRLLCTDPGFVKWTFEILDETNENKQNEWITEKAEATNTGKYTCTNKHGLSNSIYVFVRDPAKLFLVYRSLYGKEDNDTLVRCPLTDPEVTNYSLKGCQGKPLPKDLRFIPDPKAGIMIKSVKRAYHRLCLHCSVDQEGKSVLSEKFILKVRPAFKAVPVVSVSKASYLLREGEEFTVTCTIKDVSSSVYSTWKRENSQTKLQEKYNSWHHGDFNYERQATLTISSARVNDSGVFMCYANNTFGSANVTTTLEVVDKG
Regarding B14, the “binding to Refmab #1 compared to wild type” value in experiment [1] is “particular strong decrease in binding”.
